Assay results from US20260216244A1 (published 2026).

T1: EGFR L858R peptide on HLA-A*03:01 (human)
T1 peptide: KITDFGRAK

B1: TCR3 (TCR, V domains shown)
Valpha: ENVEQHPSTLSVQEGDSAVIKCTYSDSASNYFPWYKQELGKRPQLIIDIRSNVGEKKDQRIAVTLNKTAKHFSLHITETQPEDSAVYFCAADMRFGAGTRLTVKP
Vbeta: GVTQTPKFRILKIGQSMTLQCTQDMNHNYMYWYRQDPGMGLKLIYYSVGAGITDKGEVPNGYNVSRSTTEDFPLRLELAAPSQTSVYFCASSYSRDSIREQYFGPGTRLTVT
B2: TCR4 (TCR, V domains shown)
Valpha: QKEVEQNSGPLSVPEGAIASLNCTYSDRGSQSFFWYRQYSGKSPELIMSIYSNGDKEDGRFTAQLNKASQYVSLLIRDSQPSDSATYLCAVSATGFQKLVFGTGTRLLVSP
Vbeta: QVTQNPRYLITVTGKKLTVTCSQNMNHEYMSWYRQDPGLGLRQIYYSMNVEVTDKGDVPEGYKVSRKEKRNFPLILESPSPNQTSLYFCASTADRGGNEQFFGPGTRLTVL

Target: T1, EGFR L858R peptide on HLA-A*03:01
Experiment: multimer staining

Binder | binding result
B1 | recognises
B2 | recognises
